From the supplement of paper PMC9112550, “Optimization of the antimicrobial peptide Bac7 by deep mutational scanning” (BMC Biology, 2022)

System: Escherichia coli TOP10
Test: shrunken log2 fold change of peptide-encoding DNA abundance (4.5 h post-induction vs induction); higher = less antimicrobial activity (less host growth inhibition)
Conditions: time post-induction: 4.5 h; library: site-saturation at positions 5, 18, 19, 20
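Further: peptides expressed intracellularly from a pBAD plasmid library in pooled LB shake-flask culture, induced with 0.3% L-arabinose, DNA abundance read by NGS, three biological replicates, DESeq2 with apeglm shrinkage.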

| Sequence | shrunken log2 fold change |
| --- | --- |
| RRIRHRPPRLPRPRPRPPDVPRP | 0.113 |
| RRIRLRPPRLPRPRPRPLEKPRP | -0.0425 |
| RRIRMRPPRLPRPRPRPFFPPRP | -1.89e-05 |
| RRIRSRPPRLPRPRPRPPMFPRP | 0.0179 |
| RRIRMRPPRLPRPRPRPGDCPRP | 0.548 |
| RRIRKRPPRLPRPRPRPEPEPRP | 1.34 |
| RRIRRRPPRLPRPRPRPTSCPRP | -0.108 |
| RRIRERPPRLPRPRPRPEFWPRP | 0.159 |
| RRIRWRPPRLPRPRPRPYCAPRP | -0.281 |
| RRIRIRPPRLPRPRPRPMCQPRP | 0.0317 |
| RRIRSRPPRLPRPRPRPVNSPRP | -0.365 |
| RRIRWRPPRLPRPRPRPWPVPRP | 0.502 |
| RRIRRRPPRLPRPRPRPCACPRP | -0.0784 |
| RRIRKRPPRLPRPRPRPDVYPRP | -0.0383 |
| RRIRERPPRLPRPRPRPQLAPRP | 0.00697 |
| RRIRGRPPRLPRPRPRPVEKPRP | 0.198 |
| RRIRCRPPRLPRPRPRPHSGPRP | 0.00506 |
| RRIRERPPRLPRPRPRPFFFPRP | 0.0253 |
| RRIRERPPRLPRPRPRPIASPRP | 0.129 |
| RRIRQRPPRLPRPRPRPTAKPRP | 0.151 |

| Sequence | shrunken log2 fold change |
| --- | --- |
| RRIRPRPPRLPRPRPRPEKLPRP | 0.226 |
| RRIRVRPPRLPRPRPRPEMTPRP | 0.0232 |
| RRIRWRPPRLPRPRPRPNYHPRP | -0.486 |
| RRIRCRPPRLPRPRPRPDQKPRP | 0.0192 |
| RRIRDRPPRLPRPRPRPMPKPRP | -0.0503 |
| RRIRCRPPRLPRPRPRPRYPPRP | -0.00708 |
| RRIRIRPPRLPRPRPRPNYFPRP | -0.749 |
| RRIRSRPPRLPRPRPRPDYDPRP | -0.0947 |
| RRIRPRPPRLPRPRPRPFIMPRP | -0.426 |
| RRIRARPPRLPRPRPRPSHLPRP | -0.41 |
| RRIRDRPPRLPRPRPRPNRGPRP | -0.0177 |
| RRIRVRPPRLPRPRPRPTEFPRP | -0.143 |
| RRIRNRPPRLPRPRPRPDKYPRP | -0.665 |
| RRIRYRPPRLPRPRPRPEETPRP | -0.119 |
| RRIRGRPPRLPRPRPRPIESPRP | 0.108 |
| RRIRHRPPRLPRPRPRPGNKPRP | -0.089 |
| RRIRARPPRLPRPRPRPHSIPRP | -0.344 |
| RRIRGRPPRLPRPRPRPAVHPRP | 0.536 |
| RRIRARPPRLPRPRPRPHHRPRP | 0.00443 |
| RRIRERPPRLPRPRPRPNRCPRP | -0.00988 |

| Sequence | shrunken log2 fold change |
| --- | --- |
| RRIRIRPPRLPRPRPRPSERPRP | -0.073 |
| RRIRLRPPRLPRPRPRPMTPPRP | -0.023 |
| RRIRHRPPRLPRPRPRPQFNPRP | -0.619 |
| RRIRKRPPRLPRPRPRPGHQPRP | -0.0847 |
| RRIRKRPPRLPRPRPRPGRLPRP | 0.299 |
| RRIRTRPPRLPRPRPRPHLGPRP | 0.0458 |
| RRIRSRPPRLPRPRPRPNNRPRP | -0.475 |
| RRIRLRPPRLPRPRPRPSIPPRP | -0.711 |
| RRIRHRPPRLPRPRPRPDWSPRP | 0.00911 |
| RRIRVRPPRLPRPRPRPVRTPRP | 0.103 |
| RRIRHRPPRLPRPRPRPPVVPRP | 0.253 |
| RRIRVRPPRLPRPRPRPKPGPRP | 0.507 |
| RRIRDRPPRLPRPRPRPGFYPRP | 0.00794 |
| RRIRIRPPRLPRPRPRPDYTPRP | -0.00167 |
| RRIRWRPPRLPRPRPRPDGSPRP | -0.0311 |
| RRIRMRPPRLPRPRPRPPYMPRP | -0.135 |
| RRIRQRPPRLPRPRPRPYKKPRP | -0.0619 |
| RRIRNRPPRLPRPRPRPHPCPRP | 0.231 |
| RRIRMRPPRLPRPRPRPWRSPRP | 0.166 |
| RRIRKRPPRLPRPRPRPYSHPRP | -0.134 |
